Measurements: US10766952B2, “Methods for reducing migraine frequency in a subject in need thereof” (Beth Israel Deaconess Medical Center, Inc., priority 2017, dated 2020)

Experiments:
[1] = test system: high-threshold (HT) trigeminovascular neurons; assay: Activation and sensitization of central trigeminovascular neurons by cortical spreading depression (CSD), HT neurons; assay type: in vivo, rat; conditions: for firing of HT neurons before CSD: 30 mg/kg IV, 4 hours after treatment; for firing of HT neurons after CSD: 6 hours after treatment; for expected CSD-induced activation of the HT neurons: 30 mg/kg IV 4 hours before CSD
Procedure: Cortical spreading depression (CSD) was induced mechanically by inserting a glass micropipette (tip diameter 25 μm) about 1 mm into the visual cortex for 10 sec. At a propagation rate of 3-5 mm/min, a single wave of CSD was expected to enter the neuronal receptive field within 1-2 min of cortical stimulation. For verification of CSD, cortical activity was recorded (electrocorticogram) with a glass micropipette (0.9% saline, ˜1 megohm, 7 um tip) placed just below the surface of the cerebral cortex (approximately 100 μm). The electrocorticogram electrode was positioned about 6 mm anterior to the visual cortex.
It was diluted in saline to a final dose of 30 mg/kg and administered intravenously (bolus injection, total volume 0.6-0.7 ml). A corresponding human IgG2 isotype control antibody (isotype-conAb) was also diluted in saline to a final dose of 30 mg/kg and administered intravenously (bolus injection, total volume 1.6-2.0 ml).
The experimental protocol included two parts. The first part was designed to compare CGRP-mAb vs isotype-conAb effects on spontaneous and induced activity of naïve trigeminovascular neurons, and the second part was designed to test CGRP-mAb vs isotype-conAb effects on the activation and sensitization of trigeminovascular neurons by CSD. Both parts included sampling of WDR and HT neurons in male and female rats. In the first part, the baseline neuronal profile was established by (a) mapping the dural, cutaneous and corneal receptive field; (b) measuring responses (mean spikes/sec) to mechanical stimulation of the dura (with a fixed force), skin (brush, pressure, pinch) and cornea (brush), and (c) measuring spontaneous firing rate (recorded over 30 min prior to treatment). Once the baseline was established, CGRP-mAb or isotype-conAb were administered and receptive fields were remapped, neuronal responses to stimulation of the dura, skin and cornea were re-examined, and the spontaneous activity rate was re-sampled at 1, 2, 3, and 4 hours post-treatment. The resulting values for each measure were then compared with the respective baseline values obtained before treatment. In the second part, CSD was induced 4 hours after administration of CGRP-mAb or isotype-conAb and 2 hours later (i.e., 6 hours after treatment) receptive field size, spontaneous activity rate, and response magnitude to stimulation of the dura, skin and cornea were measured again. The resulting post-CSD values for each measure were then compared with the respective pre-CSD values obtained at the 4-hour post-treatment time. This part was initiated only in cases in which the physiological condition of the rats (heart rate, blood pressure, respiration, end tidal CO2) and the neuronal isolation signal (signal-to-noise ratio ≥1:3) were stable at the 4-hour post-treatment time point.
To calculate the response magnitude to each stimulus, the mean firing frequency occurring before the onset of the first stimulus (30 min for spontaneous activity, 10 sec for mechanical stimulation of the dura, skin and cornea) was subtracted from the mean firing frequency that occurred throughout the duration of each stimulus. […] A neuron was considered activated when its mean firing rate after CSD exceeded its mean baseline activity by 2 standard deviations of that mean for a period >10 min, which translated to ≥33% increase in activity. […] Mean firing rates of respective values were compared using nonparametric statistics (Wilcoxon signed-ranks test). Two-tailed level of significance was set at 0.05.

[2] = target: T1, human α-CGRP fragments and variants (Homo sapiens, UniProt P06881); assay: Biacore affinity of G1 Fab to human α-CGRP fragments and variants on chip; assay type: binding; conditions: CGRP on chip: 38A (25-38A), 37° C.
T1 construct: host or cells: synthetic peptides
Procedure: Biacore assay for affinity determination. […] All Biacore assays were conducted in HBS-EP running buffer (10 mM HEPES pH 7.4, 150 mM NaCl, 3 mM EDTA, 0.005% v/v polysorbate P20). CGRP surfaces were prepared by diluting the N-biotinylated CGRP to a concentration of less than 0.001 mg/mL into HBS-EP buffer and injecting it across the SA sensor chip using variable contact times. Low capacity surfaces, corresponding to capture levels <50 response units (RU) were used for high-resolution kinetic studies, whereas high capacity surfaces (about 800 RU of captured CGRP) were used for concentration studies, screening, and solution affinity determinations. […] Samples were typically injected for lminute at 100 μL/min and dissociation times of at least 10 minutes were allowed. After each binding cycle, surfaces were regenerated with 25 mM NaOH in 25% v/v ethanol, which was tolerated over hundreds of cycles. An entire titration series (typically generated in duplicate) was fit globally to a 1:1 Langmuir binding model using the BlAevaluation program. This returned a unique pair of association and dissociation kinetic rate constants (respectively, kon and koff) for each binding interaction, whose ratio gave the equilibrium dissociation constant (KD=koff/[…]).

[3] = test system: first-order trigeminovascular neurons (A-delta and C-type meningeal nociceptors); assay: Single-unit recording of first-order trigeminovascular neurons in the trigeminal ganglion activated by CSD; assay type: in vivo, rat
Procedure: CSD was induced by pinprick 4 hours after drug/isotype infusion.

B1: fremanezumab (antibody)
heavy: EVQLVESGGGLVQPGGSLRLSCAASGFTFSNYWISWVRQAPGKGLEWVAEIRSESDASATHYAEAVKGRFTISRDNAKNSLYLQMNSLRAEDTAVYYCLAYFDYGLAIQNYWGQGTLVTVSSASTKGPSVFPLAPCSRSTSESTAALGCLVKDYFPEPVTVSWNSGALTSGVHTFPAVLQSSGLYSLSSVVTVPSSNFGTQTYTCNVDHKPSNTKVDKTVERKCCVECPPCPAPPVAGPSVFLFPPKPKDTLMISRTPEVTCVVVDVSHEDPEVQFNWYVDGVEVHNAKTKPREEQFNSTFRVVSVLTVVHQDWLNGKEYKCKVSNKGLPSSIEKTISKTKGQPREPQVYTLPPSREEMTKNQVSLTCLVKGFYPSDIAVEWESNGQPENNYKTTPPMLDSDGSFFLYSKLTVDKSRWQQGNVFSCSVMHEALHNHYTQKSLSLSPGK
light: EIVLTQSPATLSLSPGERATLSCKASKRVTTYVSWYQQKPGQAPRLLIYGASNRYLGIPARFSGSGSGTDFTLTISSLEPEDFAVYYCSQSYNYPYTFGQGTKLEIKRTVAAPSVFIFPPSDEQLKSGTASVVCLLNNFYPREAKVQWKVDNALQSGNSQESVTEQDSKDSTYSLSSTLTLSKADYEKHKVYACEVTHQGLSSPVTKSFNRGEC
notes: humanized anti-CGRP antagonist antibody, vectors ATCC PTA-6867 and PTA-6866
**Q.** Which “difference in HT neurons activated by CSD versus isotype-conAb” value ([1]; 2/14 versus 13/13) does the source give for B1 here?
**A.** The value was 86%.

**Q.** What about the “HT neuronal responses to dural indentation with VFH before CSD” value ([1]; female rats) of the same molecule?
**A.** Its value is 10.5±1.6.

**Q.** What about the “HT neurons with expansion of dural receptive fields after CSD” value ([1]; female rats) of the same molecule?
**A.** Its value is 0/6.

**Q.** And the “HT neurons with expansion of facial receptive fields after CSD” value ([1]; female rats)?
**A.** Its value is 0/6.

**Q.** And the “firing of HT neurons before CSD” value ([1]; female rats, 6 HT neurons)?
**A.** Its value is 3.3±1.7 spikes/sec.

**Q.** And the “firing of HT neurons after CSD” value ([1]; female rats, 6 HT neurons, 2 hours after CSD, p=0.45)?
**A.** The value was 5.0±3.4 spikes/sec.

**Q.** And the “HT neuronal response to brushing the cornea after CSD” value ([1]; female rats, 6 HT neurons, p=0.51)?
**A.** The value was “remained unchanged”.

**Q.** What about the “expected CSD-induced activation of the HT neurons” value ([1]; female rats) of the same molecule?
**A.** The value was “prevented”.

**Q.** What about the “HT neuronal responses to dural indentation with VFH after CSD” value ([1]; female rats, 2 hours after CSD, p=0.72) of the same molecule?
**A.** The value was 8.1±6.4.

**Q.** And the “HT neuronal responses to brush, pressure and pinch of the skin after CSD” value ([1]; male and female rats, 2 hours after CSD, p=0.35, 0.63, 0.78)?
**A.** The value was “remained unchanged”.

**Q.** And the “HT neurons activated by CSD (case-by-case analysis)” value ([1]; male and female rats, activated/tested)?
**A.** The value was 2/14.

**Q.** What about the “HT neuronal responses to dural indentation with VFH before CSD” value ([1]; male rats) of the same molecule?
**A.** Its value is 1.8±0.6.

**Q.** What about the “HT neurons with expansion of dural receptive fields after CSD” value ([1]; male rats) of the same molecule?
**A.** Its value is 2/8.

**Q.** And the “HT neurons with expansion of facial receptive fields after CSD” value ([1]; male rats)?
**A.** The value was 2/8.

**Q.** And the “HT neuronal response to brushing the cornea before CSD” value ([1]; male rats, 8 HT neurons)?
**A.** The value was 10.8±3.3 spikes/sec.

**Q.** What about the “firing of HT neurons before CSD” value ([1]; male rats, 8 HT neurons) of the same molecule?
**A.** The value was 1.2±0.6 spikes/sec.

**Q.** What about the “firing of HT neurons after CSD” value ([1]; male rats, 8 HT neurons, 2 hours after CSD, p=0.29) of the same molecule?
**A.** The value was 1.9±1.5 spikes/sec.

**Q.** What about the “HT neuronal response to brushing the cornea after CSD” value ([1]; male rats, 8 HT neurons, p=0.60) of the same molecule?
**A.** Its value is 9.4±1.8 spikes/sec.

**Q.** And the “expected CSD-induced activation of the HT neurons” value ([1]; male rats)?
**A.** The value was “prevented”.

**Q.** What about the “HT neuronal responses to dural indentation with VFH after CSD” value ([1]; male rats, 2 hours after CSD, p=0.83) of the same molecule?
**A.** The value was 1.9±1.5.

**Q.** And the KD [2]?
**A.** Its KD is “No binding”.

**Q.** What about the “activation of meningeal nociceptors by CSD” value ([3]; FIGS. 20A and 20B) of the same molecule?
**A.** The value was “prevents the activation of most a-delta and some C-type meningeal nociceptors”.

**Q.** What about the “a-delta fibers activated by CSD” value ([3]; male rats, 30 mg/kg IV 4 hours before CSD, FIG. 21A) of the same molecule?
**A.** Its value is 14%.

**Q.** What about the “C-fibers activated by CSD” value ([3]; male rats, 30 mg/kg IV 4 hours before CSD, FIG. 21B) of the same molecule?
**A.** The value was 23%.

**Q.** And the “neurons tested that were activated by CSD” value ([3]; male rats, 30 mg/kg IV 4 hours before CSD, all neurons)?
**A.** The value was 20%.
